Measurements as given in US20110217279.

B1: GST-hBVR fusion protein (protein)
chain: MNAEPERKFGVVVVGVGRAGSVRMRDLRNPHPSSAFLNLIGFVSRRELGSIDGVQQISLEDALSSQEVEVAYICSESSSHEDYIRQFLNAGKHVLVEYPMTLSLAAAQELWELAEQKGKVLHEEHVELLMEEFAFLKKEVVGKDLLKGSLLFTSDPLEEDRFGFPAFSGISRLTWLVSLFGELSLVSATLEERKEDQYMKMTVCLETEKKSPLSWIEEKGPGLKRNRYLSFHFKSGSLENVPNVGVNKNIFLKDQNIFVQKLLGQFSEKELAAEKKRILHCLGLAEEIQKYCCSRK

Columns and labels:
[1] = tested on: T1, hBVR-derived substrate peptide GLKRNRYLSFHFK (hBVR aa222-234)
T1 sequence: GLKRNRYLSFHFKS

[2] = tested on: T2, variant peptide GLKRNRYLAFHFKSGSL
T2 sequence: GLKRNRYLAFHFKSGSL

[3] = tested on: T3, variant peptide GLKRNRYLAFHFK
T3 sequence: GLKRNRYLAFHFK

[4] = molecular target: active recombinant human PKC-δ kinase (as a GST fusion protein), Q05655
Chain of active recombinant human PKC-δ kinase (as a GST fusion protein), Q05655 (Q05655 whole entry, looked up, stated change not applied, the tested form may be a part): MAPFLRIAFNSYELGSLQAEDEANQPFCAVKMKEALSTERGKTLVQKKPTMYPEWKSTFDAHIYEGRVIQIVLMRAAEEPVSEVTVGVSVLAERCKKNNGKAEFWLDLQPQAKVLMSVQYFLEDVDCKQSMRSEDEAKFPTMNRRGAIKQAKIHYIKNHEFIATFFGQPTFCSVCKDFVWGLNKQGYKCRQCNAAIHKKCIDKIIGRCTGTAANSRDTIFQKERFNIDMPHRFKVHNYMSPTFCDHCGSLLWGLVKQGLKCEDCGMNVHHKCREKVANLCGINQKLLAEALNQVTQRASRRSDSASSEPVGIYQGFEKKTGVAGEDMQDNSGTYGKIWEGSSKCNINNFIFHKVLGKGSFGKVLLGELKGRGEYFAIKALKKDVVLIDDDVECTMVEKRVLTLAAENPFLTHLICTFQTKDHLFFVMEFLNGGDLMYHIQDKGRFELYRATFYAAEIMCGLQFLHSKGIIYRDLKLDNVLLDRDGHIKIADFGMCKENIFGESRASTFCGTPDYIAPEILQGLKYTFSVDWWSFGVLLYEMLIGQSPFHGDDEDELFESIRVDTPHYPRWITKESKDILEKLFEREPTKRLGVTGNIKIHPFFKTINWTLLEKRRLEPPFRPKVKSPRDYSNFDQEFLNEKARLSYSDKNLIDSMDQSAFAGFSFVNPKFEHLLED

Molecule	Km (phosphorylation of the peptide, in vitro kinase assay, Michaelis-Menten fit) [1]	phosphorylation of the peptide by PKC-δ (kinase assay, FIG. 4C) [2]	phosphorylation of the peptide by PKC-δ (kinase assay, FIG. 4C) [3]	PKC-δ autophosphorylation, phosphorylation of hBVR and kinase activity toward MBP (in vitro kinase assay) [4]
recombinant PKC-βII	Km 14.03 µM			
recombinant PKC-ζ	Km 6.89 µM			
active recombinant human PKC-δ kinase (as a GST fusion protein)	Km of 1.59±0.58 µM	As with the shorter peptide, the replacement of serine with alanine markedly decreased phosphorylation of the peptide	A variant peptide in which the target serine was replaced by alanine was, as expected, not a substrate for the kinase	
B1				resulted in phosphorylation of hBVR concomitant with an enhanced PKC-δ autophosphorylation (FIG. 1A), and increased kinase activity toward the substrate, MBP (FIG. 1B)
